Reference: the supplement of paper PMC10065799, “High-throughput profiling of sequence recognition by tyrosine kinases and SH2 domains using bacterial peptide display” (eLife, 2023)

Tested on: c-Src
Experiment: phosphorylation enrichment, bacterial display (enrichment ratio); higher = better substrate or ligand; peptides without Tyr show the background
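For SH2 binding enrichment of the phosphorylated peptide, bacterial display in this document: peptide library displayed on the E. coli surface as eCPX fusions, selected cells deep-sequenced, score is each peptide's frequency after selection divided by its frequency in the input.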
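For phosphorylation enrichment, bacterial display in this document: 11-residue human phosphosite peptides and single-mutation variants displayed on the E. coli surface, counted by deep sequencing, each peptide's frequency after selection divided by its frequency in the unselected input library; frequency after pTyr selection over input frequency; kinase dosed for 20-30% of maximal phosphorylation in three min.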

| Sequence | phosphorylation enrichment |
| --- | --- |
| KYWREYILSLE [GPC3_Y299] | 0.856 |
| VAMELYVFGGV [GAN_Y471] | 1.13 |
| TKGNEYVFRVA | 0.489 |
| DENWFYTQAAS [RPS19_Y54_R56Q] | 0.472 |
| PTEAQYRFIYM [PTPN11_Y511_Q506P] | 1.75 |
| FAKTQYPDVFA [CRX_Y63_YF] | 0.351 |
| FLKDVYVDSKD [NDUFAF4_Y69] | 0.471 |
| QFQLKYSETPF [SIX6OS1_Y129_YF] | 0.812 |
| AQINLYQDVML [ZNF806_Y33] | 1.05 |
| YTFTSYYMHWV [IGHV1-46_Y51] | 0.952 |
| HHIDYYKKTTN [FGFR1_Y654] | 0.481 |
| TKFRNYLIPKG [CYP2C8_Y379] | 0.443 |
| KPNMNYDKLSQ [FLI1_Y332_R337Q] | 0.478 |
| TDKLFYIYTPG [SLC27A4_Y243_S247P] | 0.592 |
| LVPPRYVRSEI [PKP2_Y194_A195V] | 0.555 |
| DLVSEYQQYQD [TUBB3_Y422] | 0.677 |
| LRNIDYFRLDG [ATRX_Y2083_YF] | 3.74 |
| PDSVDYPKKGF [CTSK_Y121_R122P_YF] | 1.52 |
| NLSVPYDSSLK [ABCC8_Y1353_R1352P] | 0.508 |
| GPIFRYDSGGA [CYP11B1_Y81_L83S] | 0.475 |
| ISDNAYQYMLT [MYH7_Y162] | 0.975 |
| NLTLKYPIEHG [ACTA1_Y71_I66N] | 0.417 |
| GGGGSYNVFGN [HNRNPA1_Y312_D314V] | 0.488 |
| PTTKTYFPHFH [HBA1_Y43_D48H] | 0.655 |
| DSGKLYALDGL [INO80_Y1104_V1108G] | 1.17 |
| DYLEKYYKFGC [NNMT_Y24_S29C] | 0.78 |
| LEIETYRRLLD [KRT12_Y429] | 0.369 |
| SHMVNYQPFRK [TEX37_Y25_D24N_YF] | 0.492 |

Biological target: Grb2 SH2 (UniProt P62993)
Experiment: SH2 binding enrichment of the phosphorylated peptide, bacterial display (enrichment ratio); higher = better substrate or ligand; peptides without Tyr show the background

| Sequence | SH2 binding enrichment |
| --- | --- |
| KYWREYILSLE [GPC3_Y299] | 1.48 |
| VAMELYVFGGV [GAN_Y471] | 0.808 |
| FAKTQYPDVFA [CRX_Y63_YF] | 0.803 |
| YTFTSYYMHWV [IGHV1-46_Y51] | 0.978 |
| HHIDYYKKTTN [FGFR1_Y654] | 0.699 |
| TKFRNYLIPKG [CYP2C8_Y379] | 1.1 |
| KPNMNYDKLSQ [FLI1_Y332_R337Q] | 0.882 |
| LRNIDYFRLDG [ATRX_Y2083_YF] | 0.761 |
| PDSVDYPKKGF [CTSK_Y121_R122P_YF] | 0.872 |
| NLSVPYDSSLK [ABCC8_Y1353_R1352P] | 0.765 |
| GPIFRYDSGGA [CYP11B1_Y81_L83S] | 0.969 |
| ISDNAYQYMLT [MYH7_Y162] | 0.812 |
| NLTLKYPIEHG [ACTA1_Y71_I66N] | 0.804 |
| GGGGSYNVFGN [HNRNPA1_Y312_D314V] | 0.833 |
| PTTKTYFPHFH [HBA1_Y43_D48H] | 0.971 |
| DSGKLYALDGL [INO80_Y1104_V1108G] | 0.92 |
| LEIETYRRLLD [KRT12_Y429] | 0.762 |

The next lines start with the values.

| SH2 binding enrichment | Sequence |
| --- | --- |
| 0.871 | TKGNEYVFRVA |
| 0.906 | DENWFYTQAAS [RPS19_Y54_R56Q] |
| 0.528 | PTEAQYRFIYM [PTPN11_Y511_Q506P] |
| 0.848 | FLKDVYVDSKD [NDUFAF4_Y69] |
| 1.01 | QFQLKYSETPF [SIX6OS1_Y129_YF] |
| 0.886 | AQINLYQDVML [ZNF806_Y33] |
| 0.684 | TDKLFYIYTPG [SLC27A4_Y243_S247P] |
| 0.788 | LVPPRYVRSEI [PKP2_Y194_A195V] |
| 0.989 | DLVSEYQQYQD [TUBB3_Y422] |
| 0.611 | DYLEKYYKFGC [NNMT_Y24_S29C] |
| 0.766 | SHMVNYQPFRK [TEX37_Y25_D24N_YF] |

Biological target: SHP2-C SH2
Experiment: as above

| Sequence | SH2 binding enrichment |
| --- | --- |
| KYWREYILSLE [GPC3_Y299] | 1.71 |
| VAMELYVFGGV [GAN_Y471] | 0.685 |
| FAKTQYPDVFA [CRX_Y63_YF] | 0.544 |
| YTFTSYYMHWV [IGHV1-46_Y51] | 1.1 |
| HHIDYYKKTTN [FGFR1_Y654] | 0.535 |
| TKFRNYLIPKG [CYP2C8_Y379] | 0.92 |
| KPNMNYDKLSQ [FLI1_Y332_R337Q] | 0.659 |
| LRNIDYFRLDG [ATRX_Y2083_YF] | 22.6 |
| PDSVDYPKKGF [CTSK_Y121_R122P_YF] | 0.486 |
| NLSVPYDSSLK [ABCC8_Y1353_R1352P] | 0.735 |
| GPIFRYDSGGA [CYP11B1_Y81_L83S] | 0.732 |
| ISDNAYQYMLT [MYH7_Y162] | 0.873 |
| NLTLKYPIEHG [ACTA1_Y71_I66N] | 0.718 |
| GGGGSYNVFGN [HNRNPA1_Y312_D314V] | 0.747 |
| PTTKTYFPHFH [HBA1_Y43_D48H] | 0.981 |
| DSGKLYALDGL [INO80_Y1104_V1108G] | 0.525 |
| LEIETYRRLLD [KRT12_Y429] | 0.602 |

Now from value to sequence:

| SH2 binding enrichment | Sequence |
| --- | --- |
| 1.39 | TKGNEYVFRVA |
| 0.726 | DENWFYTQAAS [RPS19_Y54_R56Q] |
| 0.673 | PTEAQYRFIYM [PTPN11_Y511_Q506P] |
| 0.749 | FLKDVYVDSKD [NDUFAF4_Y69] |
| 1.37 | QFQLKYSETPF [SIX6OS1_Y129_YF] |
| 0.68 | AQINLYQDVML [ZNF806_Y33] |
| 1.12 | TDKLFYIYTPG [SLC27A4_Y243_S247P] |
| 0.632 | LVPPRYVRSEI [PKP2_Y194_A195V] |
| 0.642 | DLVSEYQQYQD [TUBB3_Y422] |
| 0.53 | DYLEKYYKFGC [NNMT_Y24_S29C] |
| 0.732 | SHMVNYQPFRK [TEX37_Y25_D24N_YF] |

Biological target: c-Src SH2
Experiment: as above

| Sequence | SH2 binding enrichment |
| --- | --- |
| KYWREYILSLE [GPC3_Y299] | 1.37 |
| VAMELYVFGGV [GAN_Y471] | 0.395 |
| FAKTQYPDVFA [CRX_Y63_YF] | 0.486 |
| YTFTSYYMHWV [IGHV1-46_Y51] | 0.613 |
| HHIDYYKKTTN [FGFR1_Y654] | 0.443 |
| TKFRNYLIPKG [CYP2C8_Y379] | 0.631 |
| KPNMNYDKLSQ [FLI1_Y332_R337Q] | 1.15 |
| LRNIDYFRLDG [ATRX_Y2083_YF] | 0.595 |
| PDSVDYPKKGF [CTSK_Y121_R122P_YF] | 0.531 |
| NLSVPYDSSLK [ABCC8_Y1353_R1352P] | 0.489 |
| GPIFRYDSGGA [CYP11B1_Y81_L83S] | 0.543 |
| ISDNAYQYMLT [MYH7_Y162] | 1.13 |
| NLTLKYPIEHG [ACTA1_Y71_I66N] | 0.507 |
| GGGGSYNVFGN [HNRNPA1_Y312_D314V] | 0.52 |
| PTTKTYFPHFH [HBA1_Y43_D48H] | 0.761 |
| DSGKLYALDGL [INO80_Y1104_V1108G] | 0.567 |
| LEIETYRRLLD [KRT12_Y429] | 0.473 |

More lines, now with the values ahead:

| SH2 binding enrichment | Sequence |
| --- | --- |
| 0.469 | TKGNEYVFRVA |
| 0.881 | DENWFYTQAAS [RPS19_Y54_R56Q] |
| 0.335 | PTEAQYRFIYM [PTPN11_Y511_Q506P] |
| 0.413 | FLKDVYVDSKD [NDUFAF4_Y69] |
| 0.625 | QFQLKYSETPF [SIX6OS1_Y129_YF] |
| 0.685 | AQINLYQDVML [ZNF806_Y33] |
| 0.383 | TDKLFYIYTPG [SLC27A4_Y243_S247P] |
| 0.506 | LVPPRYVRSEI [PKP2_Y194_A195V] |
| 0.597 | DLVSEYQQYQD [TUBB3_Y422] |
| 0.581 | DYLEKYYKFGC [NNMT_Y24_S29C] |
| 0.613 | SHMVNYQPFRK [TEX37_Y25_D24N_YF] |
